Paper PMC3507683, “Crystal Structure of the Hexachlorocyclohexane Dehydrochlorinase (LinA-Type2): Mutational Analysis, Thermostability and Enantioselectivity” (PLoS ONE, 2012)

Molecular target: the molecule itself
Test: crystal structure; hanging drop, 293 K, 0.1 M trisodium citrate pH 5.5, 3% PEG 3350; space group P6(3)22; seven subunits in the asymmetric unit; 3.5 Å

B1: Hexachlorocyclohexane dehydrochlorinase LinA-type2 (enzyme, UniProt P51697 1-156, looked up)
chain: MSDLDRLASRAAIQDLYSDQLIGVDKRQEGRLASIWWDDAEWTIEGIGTYKGPEGALDLANNVLWPMYHETIHYGTNLRLEFVSADKVNGIGDVLCLGNLVEGNQSILIAAVYTNEYERRDGVWKFSKLNGCMNYFTPLAGIHFAPPGIHFAPSGA
notes: LinA-type2, gamma-hexachlorocyclohexane dehydrochlorinase variant obtained by PCR from metagenomic DNA of an HCH-contaminated soil (GenBank EU863871); It differs by 10 residues from LinA-type1 (= LinA-UT26 of Sphingobium japonicum UT26, 156 amino acids); The printed primers run from the ATG start codon to the last codon, without a stop codon; Homotrimer; also called -type2 protein; source: E. …
With B1 the “stoichiometry N” value was 3.
